Results from patent publication US9428586B2, “Heparanase splice variant” (COMPUGEN LTD, priority 2010, dated 2016).

Tests used:
[1] = target: T1, heparanase (Homo sapiens, UniProt Q9Y251); assay: Inhibition of purified active heparanase by peptides (35S-labeled ECM degradation); type: biochemical; details: peptide 50 μg/ml; purified active heparanase 40 ng
T1 construct: the 8 kDa portion and the 50 kDa portion form a heterodimer, which is enzymatically active
T1 sequence (Q9Y251 36-109 limits assumed): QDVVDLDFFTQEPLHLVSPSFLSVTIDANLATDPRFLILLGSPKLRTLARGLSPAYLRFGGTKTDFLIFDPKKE
T1 sequence (Q9Y251 158-543 limits assumed): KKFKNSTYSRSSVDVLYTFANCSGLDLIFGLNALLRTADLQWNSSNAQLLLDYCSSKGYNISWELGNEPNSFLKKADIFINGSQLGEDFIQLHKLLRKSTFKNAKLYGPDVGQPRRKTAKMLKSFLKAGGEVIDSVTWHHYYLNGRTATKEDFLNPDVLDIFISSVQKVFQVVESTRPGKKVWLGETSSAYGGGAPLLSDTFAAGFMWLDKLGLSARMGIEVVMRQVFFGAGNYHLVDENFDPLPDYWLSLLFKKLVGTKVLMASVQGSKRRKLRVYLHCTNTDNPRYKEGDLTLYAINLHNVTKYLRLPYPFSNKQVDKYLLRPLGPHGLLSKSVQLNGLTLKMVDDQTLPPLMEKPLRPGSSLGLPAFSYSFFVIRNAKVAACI
Experimental: (§1) FIG. 7. […] A. Cell lysates. […] B,C. Peptide analysis. […] C. Enzymatic activity.
(§2) Preparation of cell lysates, protein blotting, and measurement of heparanase enzymatic activity were carried out as described previously (Zetser, A., et al., 2006, Cancer Res 66, 1455-1463; Fux, L., et al., 2009, Cancer Res 69, 1758-1767).

[2] = Binding to heparin beads; details: gel electrophoresis prior to or following incubation with heparin beads
Source text: as §1

[3] = test system: Src; assay: Src phosphorylation (immunoblot, densitometry) in CAG myeloma cells; type: cell-based, human; details: serum-free
Experimental: (§3) FIG. 3. T5 augments Src phosphorylation. A. Over expression. CAG myeloma (left) and 293 (right) cells infected with heparanase (Hepa), T5, or control empty vector (Vo) were grown in the absence (−) or presence (+) of heparin (50 μg/ml) under serum-free conditions. Total cell lysates were subjected to immunoblotting applying anti-heparanase 1453 (upper and second panels), anti-phospho-Src (p-Src, third panels), anti-Src (fourth panels) anti-phospho-Erk (p-Erk, fifth panels), and anti-Erk2 (sixth panels) antibodies. Src phosphorylation index was calculated by densitometry analysis of phosphorylated Src levels divided by the total Src values. Data is presented as average fold increase ±SE of Src phosphorylation compared with control, Vo cells, set arbitrary to a value of 1 (lower panels) of five independent experiments. B. Gene silencing. Parental 293 cells were transfected with anti-heparanase, anti-T5, or control siRNAs. Total RNA was extracted and RT-PCR analysis was performed applying T5 (upper panel), heparanase (Hepa, second panel) and GAPDH (third panel) specific primers. Corresponding cell lysates were subjected to immunoblotting applying phospho-Src (p-Src, fourth panel), Src (fifth panel), phospho-Erk (p-Erk, sixth panel) and Erk2 (seventh panel) antibodies. Src phosphorylation index was calculated as above and is shown graphically in the lower panel. Note decreased Src phosphorylation levels upon T5 down regulation.
as §2

[4] = test system: 293 cells; assay: T5 and heparanase levels in cell conditioned medium with heparin (immunoblot); type: cell-based, human; details: heparin 50 μg/ml, 20 h, serum-free
Source text: as §1

[5] = test system: T5; assay: T5 protein bands in T5-transfected 293 cells treated with tunicamycin or chloroquine (immunoblot); type: cell-based, human; details: tunicamycin 10, 20 μg/ml
Source text: FIG. 2. Cloning and expression of T5. A. RT-PCR analysis. Total RNA was extracted from the indicated cell line and subjected to RT-PCR analysis applying T5 (upper panel), heparanase (second panel) and GAPDH (third panel) specific primers, specified in the ‘Materials and Methods’ section. B. T5 transfection. […] Control cells were transfected with an empty vector (Vo). Cell lysates (left) and cell conditioned medium (right) were blotted with anti-heparanase 1453 antibody. C. Cellular localization. Stably transfected 293 cells were triple stained for Myc-tag (T5; middle, red), the ER marker calnexin (ER, left, green), and merged with cell nuclei labeled with TO-PRO (right, blue). Cells were similarly stained with anti-Myc-tag (T5; middle, red), the Golgi marker wheat germ agglutinin-FITC (Golgi, left, green) and merged with cell nuclei labeled with TO-PRO (right, blue). […] D. Enzymatic activity. 293 cells transfected with heparanase (Hepa), T5 or control empty vector (Vo) were subjected to three freeze-thaw cycles and applied onto culture dishes coated with ^35S-labelled ECM. Release of sulfate-labeled material eluted in fractions 15-30 was evaluated as measure of heparanase activity, as described in ‘Materials and Methods’. […]

[6] = test system: Src; assay: Src phosphorylation (immunoblot, densitometry) in 293 cells; type: cell-based, human; details: over expressing 293 cells, serum-free
Experimental: as §3, with “(-)” for “(−)”, “Data is presented as average fold increase ±SE of Src phosphorylation compared with control, Vo cells, set arbitrary to a value of 1 (lower panels) of five independent experiments.” left out, “regulation. […]” for “regulation.”

[7] = test system: Erk; assay: Erk phosphorylation (immunoblot) in CAG myeloma and 293 cells; type: cell-based, human
Experimental: as §3, with “Note decreased Src phosphorylation levels upon T5 down regulation.” left out

[8] = test system: CAG myeloma cells; assay: Cell proliferation by BrdU incorporation, CAG myeloma cells; type: cell-based, human; details: infected CAG cells, serum-free 20 h, BrdU 2 h; control Vo 24±3%
Experimental: (§4) FIG. 4. T5 augments cell proliferation. A. BrdU incorporation. Morphology of control (Con), heparanase (Hepa)- and T5-infected CAG myeloma cell cultures is shown in the upper panels. […] Sub-confluent cultures of control (Vo), heparanase (Hepa)- and T5-infected CAG cells were grown in serum-free medium for 20 h followed by incubation with BrdU (1:1000) for 2 h. Cells were then fixed and immunostained with anti BrdU monoclonal antibody. Positively stained, red-brown nuclei were counted vs. blue, hematoxilin counter-stained nuclei. At least 1000 cells were counted for each cell type and the percentage of positively stained cells is noted in each panel. Fold increase in BrdU incorporation is shown graphically on the right panel. Gene silencing. 293 cells were transfected with anti-GFP (si-GFP), anti-heparanase (si-Hepa) or anti-T5 siRNA oligonucleotides and BrdU incorporation was evaluated as above except that cells were kept in serum-containing medium (lower panels). Note 2-fold decrease in BrdU incorporation following heparanase or T5 gene silencing (lower right panel). B. Colony formation in soft agar. […]
Cell proliferation was analyzed by BrdU incorporation using cell proliferation labeling reagent (1:1000, GE Healthcare), as described in Zetser, A., et al (2003 Cancer Res 63, 7733-7741). At least 1000 cells were counted for each cell type.

[9] = test system: CAG myeloma, FaDu pharynx carcinoma and 293 cells; assay: Colony formation in soft agar; type: cell-based, human; details: over expression in CAG myeloma, FaDu and 293 cells
Experimental: as §4
Three ml of DMEM containing 0.5% low melt agarose (Bio-Rad, Hercules, Calif.) and 10% fetal calf serum was poured into 60 mm petri dishes. […] Colonies were visualized and counted under a microscope after 2-5 weeks, as described.

[10] = test system: CAG myeloma cells; assay: CAG myeloma tumor xenograft development and immunohistochemistry; type: in vivo, athymic nude mice
Experimental: FIG. 5. T5 enhances tumor xenograft development. Control (Vo), heparanase-, and T5-infected CAG myeloma cells were injected subcutaneously (1×10^6/0.1 ml) and tumor volume was calculated (A). At the end of the experiment on day 37, tumors were resected, photographed (A, inset) and weighted (B). C. Immunohistochemical analysis. Paraffin-embedded 5 micron sections were stained with hematoxilin & eosin (left column), anti-CD31 (second left column), and anti-smooth muscle actin (SMA, two right columns) antibodies. Note increased blood vessels density and maturation (recruitment of SMA-positive cells) in xenografts produced by heparanase- and T5-infected cells. Cells from exponential cultures of control-, heparanase-, and T5-infected CAG myeloma cells were detached with trypsin/EDTA, washed with PBS and brought to a concentration of 1×10^7 cells/ml. Cell suspension (1×10 6/0.1 ml) was inoculated subcutaneously at the right flank of 5-weeks old female athymic nude mice (n=7). Xenograft size was determined twice a week by externally measuring tumors in two dimensions using a caliper. At the end of the experiment, mice were sacrificed and xenografts were removed, weighted and fixed in formalin. Paraffin-embedded 5 micron sections were subjected to immunostaining with anti-PECAM-1 (CD31) or anti-smooth muscle actin (1A4, Sigma) antibodies, using the Envision kit, according to the manufacturer's (Dako, Glostrup, Denmark) instructions, as described (Fux, L., et al., 2009, Cancer Res 69, 1758-1767). All animal experiments were approved by the Animal Care Committee of the Technion, Haifa, Israel.

[11] = CAG xenografts, immunohistochemistry

CKKFKNSTYSSKK [CKKK]
inhibition of heparanase enzymatic activity [1]: failed to interact with heparin or to inhibit heparanase enzymatic activity
interaction of peptide with heparin [2]: failed to interact with heparin

heparin
effect of heparin on Src phosphorylation enhanced by heparanase or T5 ([3]; heparin 50 μg/ml, CAG myeloma and 293 cells): not affected
T5 levels in the cell culture medium upon addition of heparin [4]: not affected
heparanase levels in the cell culture medium upon addition of heparin [4]: markedly increased

tunicamycin
amount of the ˜17 kDa T5 band [5]: markedly reduced

B1: heparanase: full length wild type human heparanase, endo-β-D-glucuronidase (protein)
chain: QDVVDLDFFTQEPLHLVSPSFLSVTIDANLATDPRFLILLGSPKLRTLARGLSPAYLRFGGTKTDFLIFDPKKESTFEERSYWQSQVNQDICKYGSIPPDVEEKLRLEWPYQEQLLLREHYQKKFKNSTYSRSSVDVLYTFANCSGLDLIFGLNALLRTADLQWNSSNAQLLLDYCSSKGYNISWELGNEPNSFLKKADIFINGSQLGEDFIQLHKLLRKSTFKNAKLYGPDVGQPRRKTAKMLKSFLKAGGEVIDSVTWHHYYLNGRTATKEDFLNPDVLDIFISSVQKVFQVVESTRPGKKVWLGETSSAYGGGAPLLSDTFAAGFMWLDKLGLSARMGIEVVMRQVFFGAGNYHLVDENFDPLPDYWLSLLFKKLVGTKVLMASVQGSKRRKLRVYLHCTNTDNPRYKEGDLTLYAINLHNVTKYLRLPYPFSNKQVDKYLLRPLGPHGLLSKSVQLNGLTLKMVDDQTLPPLMEKPLRPGSSLGLPAFSYSFFVIRNAKVAACI
Src phosphorylation increase vs control Vo cells ([3]; infected CAG myeloma cells): ~3 fold
Src phosphorylation enhancement vs control Vo cells [6]: ~4 fold
Erk phosphorylation upon over expression [7]: not affected
BrdU incorporation (positively stained cells) [8]: 49±6%
colony number, size and cell density in soft agar [9]: markedly increased
micro vessel density (CD31) [10, 11]: two-fold increase in vessel density
pericytes associated with blood vessels (smooth muscle actin) [10, 11]: significantly increased number of pericytes
average weight of xenografts ([10]; day 37, subcutaneous infected CAG cells, control 58±11 mg): 648 ± 69 mg
development of tumor xenografts after day 21 vs control cells ([10]; subcutaneous infected CAG cells): markedly enhanced
